From PMC1424673

T1: Irr (Bradyrhizobium japonicum, UniProt O85719 1-163)
T1 sequence: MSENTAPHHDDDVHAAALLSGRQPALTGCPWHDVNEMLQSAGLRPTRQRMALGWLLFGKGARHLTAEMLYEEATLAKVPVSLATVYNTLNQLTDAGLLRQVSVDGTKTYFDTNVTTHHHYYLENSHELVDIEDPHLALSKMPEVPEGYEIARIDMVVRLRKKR

B1: non-specific pSK control (dsDNA)
DNA 1: CAGGAATTCGATATCAAGCTTATCGATACCGTCGACCTC
DNA 2: GTCGAGGTCGACGGTATCGATAAGCTTGATATCGAATTC
B2: bll5796 ICE-like probe (dsDNA)
DNA 1: CAGGAATTCGATAGCTTAGAACGCTTCTATGCCGACCTC
DNA 2: GTCGAGGTCGGCATAGAAGCGTTCTAAGCTATCGAATTC
B3: blr3904 ICE-like probe (dsDNA)
DNA 1: CAGGAATTCGATACTTTAGAACCGTTTGAAACTGACCTC
DNA 2: GTCGAGGTCAGTTTCAAACGGTTCTAAAGTATCGAATTC

Molecular target: T1, Irr
Experiment: EMSA

Binder	binding result
B1	no binding
B2	binds
B3	binds
